From patent US20120121613

Columns and labels:
[1] = target: PEG-FVIII (FVIII mutein directly, non-cleavably conjugated to PEG) (UniProt P00451)
[2] = target: PEG-linker-FVIII (FVIII mutein conjugated to PEG through a thrombin-cleavable linker, linker not named in Example 2) (UniProt P00451)
unmodified FVIII mutein = unmodified FVIII mutein (UniProt P00451)

Substance: thrombin
- SDS-PAGE after thrombin digestion [1]: there was no removal of PEG-conjugated light chain (lane 4)
- SDS-PAGE after thrombin digestion (30 min at 37° C.) [2]: the PEG-conjugated light chain almost completely disappeared in SDS-PAGE analysis, indicating a complete removal of PEG
- SDS-PAGE after thrombin digestion (30 min at 37° C.) (unmodified FVIII mutein): After thrombin digestion, the FVIII light and heavy chains disappear and are replaced by cleavage products.
